This is an account of results in the supplement of paper PMC7125110.

B1: glmS ribozyme (parent)
chain: AUAAAAGCGCCAGAACUACAGAAAUGUAGUUGACGAGGAGGAGGUUUAUCGAAUUUUCGGCGGAUGCCUCCAAA

Settings in all cases: with glucosamine-6-phosphate
Variants of B1 are the subject of data set [1]. The data set can be described thus: kcat; higher = faster cleavage; RNA array. The essentials:
(§1)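 Over ~14 h at 37 °C, tiles were imaged as glucosamine-6-phosphate (40 μM to 10 mM) in HEPES/KCl/Mg(OAc)2 buffer flowed across sequenced MiSeq chips. The chips carried barcoded ribozyme variants transcribed in situ by E. coli RNA polymerase and tracked with a hybridised Cy3 probe. After normalisation to baseline and to non-cleaving reference variants, one- or two-exponential decay fits of per-tile medians gave kobs. kcat and KM followed from weighted Michaelis–Menten fits across concentrations.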

In data set [2] the parent is B1. The data set can be described thus: self-cleavage kobs at 640 uM GlcN6P; higher = faster cleavage; RNA array. The essentials: as §1
In data set [3] the parent is B1. The data set can be described thus: KM; higher = weaker cofactor use; RNA array. The essentials: as §1
The variants in data set [4] derive from B1. The data set can be described thus: self-cleavage kobs at 40 uM GlcN6P; higher = faster cleavage; RNA array. The procedure, abridged: as §1
Data set [5] covers variants of B1. The data set can be described thus: self-cleavage kobs at 160 uM GlcN6P; higher = faster cleavage; RNA array. The procedure, abridged: as §1
In data set [6] the parent is B1. The data set can be described thus: self-cleavage kobs at 2500 uM GlcN6P; higher = faster cleavage; RNA array. The procedure, abridged: as §1
The variants in data set [7] derive from B1. The data set is described as follows: self-cleavage kobs at 10000 uM GlcN6P; higher = faster cleavage; RNA array. The procedure, abridged:
as §1

± gives the standard error. For part of these data: Variants at the floor of the assay were thinned out. Bounds are passed on as bounds.

As usually defined, the kcat is the number of substrate molecules converted per active site and unit of time at saturation. For the variant G51A A53C, the turnover number (kcat) with glucosamine-6-phosphate [1] is less than 1e-05 s⁻¹. The “self-cleavage kobs at 640 uM GlcN6P” value in the data set with glucosamine-6-phosphate [2] is less than 1e-05 s⁻¹.

As usually defined, the KM is the substrate concentration at which the rate is half of its maximum. Take A39C G66C: the kcat in the data set with glucosamine-6-phosphate [1] turned out to be 0.00165 ± 0.00036 s⁻¹. Also, the Michaelis constant (KM) in the data set with glucosamine-6-phosphate [3] is 2780 ± 960 µM. Further, the “self-cleavage kobs at 40 uM GlcN6P” value with glucosamine-6-phosphate [4] came to 3.24e-05 ± 1.1e-05 s⁻¹. In addition, in the data set with glucosamine-6-phosphate [5], the “self-cleavage kobs at 160 uM GlcN6P” value worked out at 7.03e-05 ± 1.6e-05 s⁻¹. Besides, in the data set with glucosamine-6-phosphate [2], the “self-cleavage kobs at 640 uM GlcN6P” value amounted to 0.000348 ± 6.6e-05 s⁻¹. The “self-cleavage kobs at 2500 uM GlcN6P” value with glucosamine-6-phosphate [6] is 0.00104 ± 0.00017 s⁻¹. Moreover, in the data set with glucosamine-6-phosphate [7], the “self-cleavage kobs at 10000 uM GlcN6P” value worked out at 0.0012 ± 0.00016 s⁻¹.

C50A C67G: the kcat with glucosamine-6-phosphate [1] was found to be 2.95e-05 ± 1.1e-05 s⁻¹. In the data set with glucosamine-6-phosphate [4], the “self-cleavage kobs at 40 uM GlcN6P” value was 1.98e-05 ± 9e-06 s⁻¹. In the data set with glucosamine-6-phosphate [6], the “self-cleavage kobs at 2500 uM GlcN6P” value was 4.73e-05 ± 9.8e-06 s⁻¹.

As for G37U U45A, in the data set with glucosamine-6-phosphate [1], the turnover number (kcat) was less than 1e-05 s⁻¹. Besides, the “self-cleavage kobs at 160 uM GlcN6P” value in the data set with glucosamine-6-phosphate [5] was less than 1e-05 s⁻¹.

Regarding A23C C70A, in the data set with glucosamine-6-phosphate [1], the kcat stood at 0.000172 ± 3.1e-05 s⁻¹. Further, the KM with glucosamine-6-phosphate [3] was 139 ± 68 µM. For the same variant, the “self-cleavage kobs at 40 uM GlcN6P” value with glucosamine-6-phosphate [4] came to 3.76e-05 ± 1.2e-05 s⁻¹. Also, in the data set with glucosamine-6-phosphate [6], the “self-cleavage kobs at 2500 uM GlcN6P” value came to 0.000302 ± 0.0001 s⁻¹. In addition, in the data set with glucosamine-6-phosphate [7], the “self-cleavage kobs at 10000 uM GlcN6P” value is 0.000156 ± 3.2e-05 s⁻¹.

Regarding G51C U54C, the kcat with glucosamine-6-phosphate [1] is less than 1e-05 s⁻¹. The “self-cleavage kobs at 640 uM GlcN6P” value with glucosamine-6-phosphate [2] was less than 1e-05 s⁻¹. The “self-cleavage kobs at 2500 uM GlcN6P” value with glucosamine-6-phosphate [6] was less than 1e-05 s⁻¹.

As for A15U C50U, the turnover number (kcat) with glucosamine-6-phosphate [1] came to 2.32e-05 ± 2.6e-06 s⁻¹.

For G40U U47C, in the data set with glucosamine-6-phosphate [1], the kcat was 0.00133 ± 0.00022 s⁻¹. For the same variant, in the data set with glucosamine-6-phosphate [3], the KM was 2010 ± 550 µM. The “self-cleavage kobs at 40 uM GlcN6P” value with glucosamine-6-phosphate [4] turned out to be 3.24e-05 ± 8.9e-06 s⁻¹. Besides, the “self-cleavage kobs at 160 uM GlcN6P” value with glucosamine-6-phosphate [5] is 0.000104 ± 2.3e-05 s⁻¹. The “self-cleavage kobs at 640 uM GlcN6P” value in the data set with glucosamine-6-phosphate [2] came to 0.000287 ± 3.6e-05 s⁻¹. Further, the “self-cleavage kobs at 2500 uM GlcN6P” value with glucosamine-6-phosphate [6] was found to be 0.000958 ± 0.00014 s⁻¹. Also, the “self-cleavage kobs at 10000 uM GlcN6P” value with glucosamine-6-phosphate [7] worked out at 0.00106 ± 0.00013 s⁻¹.

For G44U U46G, in the data set with glucosamine-6-phosphate [1], the kcat was 0.000218 ± 4.7e-05 s⁻¹. Further, the KM with glucosamine-6-phosphate [3] was found to be 3350 ± 1300 µM. Further, the “self-cleavage kobs at 40 uM GlcN6P” value in the data set with glucosamine-6-phosphate [4] was less than 1e-05 s⁻¹. The “self-cleavage kobs at 640 uM GlcN6P” value in the data set with glucosamine-6-phosphate [2] was 2.83e-05 ± 1e-05 s⁻¹. Also, the “self-cleavage kobs at 2500 uM GlcN6P” value in the data set with glucosamine-6-phosphate [6] is 0.000102 ± 1.5e-05 s⁻¹. For the same variant, in the data set with glucosamine-6-phosphate [7], the “self-cleavage kobs at 10000 uM GlcN6P” value was 0.000146 ± 3.9e-05 s⁻¹.

U47C U49C: in the data set with glucosamine-6-phosphate [1], the kcat was less than 1e-05 s⁻¹. Further, the “self-cleavage kobs at 640 uM GlcN6P” value in the data set with glucosamine-6-phosphate [2] is less than 1e-05 s⁻¹.

Regarding G32A U47G, the kcat in the data set with glucosamine-6-phosphate [1] stood at 0.00115 ± 0.0003 s⁻¹. Also, the KM with glucosamine-6-phosphate [3] stood at 3780 ± 1600 µM. Further, the “self-cleavage kobs at 160 uM GlcN6P” value with glucosamine-6-phosphate [5] came to 5.19e-05 ± 1.5e-05 s⁻¹. The “self-cleavage kobs at 640 uM GlcN6P” value with glucosamine-6-phosphate [2] was found to be 0.000142 ± 3e-05 s⁻¹. In the data set with glucosamine-6-phosphate [6], the “self-cleavage kobs at 2500 uM GlcN6P” value came out at 0.000687 ± 0.00015 s⁻¹. Further, in the data set with glucosamine-6-phosphate [7], the “self-cleavage kobs at 10000 uM GlcN6P” value is 0.000806 ± 0.00013 s⁻¹.

With A6C A12C, the kcat in the data set with glucosamine-6-phosphate [1] was determined as 4.52e-05 ± 3.2e-06 s⁻¹. Moreover, the KM with glucosamine-6-phosphate [3] amounted to 1190 ± 370 µM. Moreover, the “self-cleavage kobs at 2500 uM GlcN6P” value in the data set with glucosamine-6-phosphate [6] amounted to 2.86e-05 ± 7.1e-06 s⁻¹. Further, the “self-cleavage kobs at 10000 uM GlcN6P” value with glucosamine-6-phosphate [7] was found to be 4.11e-05 ± 6.6e-06 s⁻¹.

Take G40A C50G: the kcat with glucosamine-6-phosphate [1] was less than 1e-05 s⁻¹.

Regarding U45G C70U, the kcat in the data set with glucosamine-6-phosphate [1] came out at 0.00681 ± 0.0021 s⁻¹. Besides, in the data set with glucosamine-6-phosphate [3], the KM was 562 ± 260 µM. The “self-cleavage kobs at 40 uM GlcN6P” value in the data set with glucosamine-6-phosphate [4] turned out to be 0.000542 ± 5.6e-05 s⁻¹. In addition, in the data set with glucosamine-6-phosphate [5], the “self-cleavage kobs at 160 uM GlcN6P” value amounted to 0.00139 ± 0.00018 s⁻¹. The “self-cleavage kobs at 640 uM GlcN6P” value in the data set with glucosamine-6-phosphate [2] was 0.00288 ± 0.0004 s⁻¹. Besides, the “self-cleavage kobs at 2500 uM GlcN6P” value with glucosamine-6-phosphate [6] turned out to be 0.00473 ± 0.00096 s⁻¹. Also, in the data set with glucosamine-6-phosphate [7], the “self-cleavage kobs at 10000 uM GlcN6P” value worked out at 0.0102 ± 0.0013 s⁻¹.

Consider C11G U30C U65G U69A, for which, in the data set with glucosamine-6-phosphate [1], the kcat is 2.81e-05 ± 7.1e-06 s⁻¹.

For the variant A48G U69C, the kcat with glucosamine-6-phosphate [1] is 9.33e-05 ± 2.9e-05 s⁻¹. For the same variant, in the data set with glucosamine-6-phosphate [6], the “self-cleavage kobs at 2500 uM GlcN6P” value turned out to be 9.27e-05 ± 3.5e-05 s⁻¹. Besides, the “self-cleavage kobs at 10000 uM GlcN6P” value with glucosamine-6-phosphate [7] worked out at 7.34e-05 ± 2.5e-05 s⁻¹.

For the variant A15G G37U U54A U55A G60C C68G, the kcat with glucosamine-6-phosphate [1] amounted to 2.16e-05 ± 6.5e-06 s⁻¹.

In the case of A14U U49C, in the data set with glucosamine-6-phosphate [1], the kcat was less than 1e-05 s⁻¹. For the same variant, the “self-cleavage kobs at 40 uM GlcN6P” value with glucosamine-6-phosphate [4] is less than 1e-05 s⁻¹. Besides, in the data set with glucosamine-6-phosphate [5], the “self-cleavage kobs at 160 uM GlcN6P” value was less than 1e-05 s⁻¹.

Take C10A A12U C71U: the turnover number (kcat) in the data set with glucosamine-6-phosphate [1] stood at 1.55e-05 ± 6.5e-07 s⁻¹. Further, the KM with glucosamine-6-phosphate [3] was 21.5 ± 9.2 µM.

For A15C G29C G37A C61U, the kcat in the data set with glucosamine-6-phosphate [1] is less than 1e-05 s⁻¹.

Consider A15C U55G, for which the catalytic constant (kcat) with glucosamine-6-phosphate [1] is 0.00196 ± 0.00085 s⁻¹. The “self-cleavage kobs at 40 uM GlcN6P” value with glucosamine-6-phosphate [4] was 0.000128 ± 3e-05 s⁻¹. In the data set with glucosamine-6-phosphate [5], the “self-cleavage kobs at 160 uM GlcN6P” value amounted to 0.000255 ± 4.7e-05 s⁻¹. Further, in the data set with glucosamine-6-phosphate [6], the “self-cleavage kobs at 2500 uM GlcN6P” value came to 0.00118 ± 0.0002 s⁻¹. Further, the “self-cleavage kobs at 10000 uM GlcN6P” value with glucosamine-6-phosphate [7] was found to be 0.00334 ± 0.00064 s⁻¹.
